According to patent publication US20140087995A1 (published 2014):
Numbered stars: 1 amine (or outer) side, 2 acyl side, 3 side chain; on linkers, the order of the positions; unused ones are H or OH. Bridge positions count the residues as written; N and C are the ends. Side chains are listed from the residue outwards. Ends that are not written are not given here. * marks the point of attachment. C20 diacid = O=C(O)CCCCCCCCCCCCCCCCCCC(=O)*; γGlu = O=C(O)[C@H](CCC(=O)[*:2])N[*:1]

T1: human amylin receptor (human, UniProt P30988 25-474; O60896 24-148, limits assumed)
T1 construct: whole, on cells; Used as cell membranes prepared from the Amylin 3(a)/CRE-luc BHK cells (Assay V); also called hAmylin-R; hAmylinR
T1 sequence (looked up) 1: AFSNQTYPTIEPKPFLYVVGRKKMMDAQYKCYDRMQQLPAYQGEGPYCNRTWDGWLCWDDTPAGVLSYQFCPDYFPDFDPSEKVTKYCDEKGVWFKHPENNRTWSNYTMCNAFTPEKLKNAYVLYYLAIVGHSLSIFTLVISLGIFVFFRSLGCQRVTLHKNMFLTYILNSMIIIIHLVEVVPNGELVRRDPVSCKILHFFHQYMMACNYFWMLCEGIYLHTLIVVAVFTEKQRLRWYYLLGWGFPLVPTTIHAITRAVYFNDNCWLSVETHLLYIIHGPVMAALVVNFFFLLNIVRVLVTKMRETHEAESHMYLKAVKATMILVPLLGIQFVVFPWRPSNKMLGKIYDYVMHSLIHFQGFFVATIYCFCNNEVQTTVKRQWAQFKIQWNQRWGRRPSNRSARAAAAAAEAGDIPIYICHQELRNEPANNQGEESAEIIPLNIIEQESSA
T1 sequence (looked up) 2: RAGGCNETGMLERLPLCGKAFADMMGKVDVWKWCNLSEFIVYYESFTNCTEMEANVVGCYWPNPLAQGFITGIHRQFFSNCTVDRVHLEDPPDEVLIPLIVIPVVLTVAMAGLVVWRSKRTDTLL


Molecular target: T1, human amylin receptor
Experiment: SPA competition vs 125I-rat amylin, membranes of amylin 3(a) receptor BHK cells (Assay V)
Method in brief: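 One-site competition analysis of SPA counts yielded IC₅₀ as a measure of affinity. Membranes were at 35 ng/μL final; incubation was 120 min at 25° C, pH 7.4.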

Row | IC50 [pM] | Binder
1 | 411 | K([γGlu-γGlu-C20 diacid])CNTATCATQRLADFLRHSSPNFGAIPSSTNVGSDTY-NH2 (disulfide 2-7; N-terminus assumed; SMILES CC[C@H](C)[C@H](NC(=O)[C@H](C)NC(=O)CNC(=O)[C@H](Cc1ccccc1)NC(=O)[C@H](CC(N)=O)NC(=O)[C@@H]1CCCN1C(=O)[C@H](CO)NC(=O)[C@H](CO)NC(=O)[C@H](Cc1c[nH]cn1)NC(=O)[C@H](CCCNC(=N)N)NC(=O)[C@H](CC(C)C)NC(=O)[C@H](Cc1ccccc1)NC(=O)[C@H](CC(=O)O)NC(=O)[C@H](C)NC(=O)[C@H](CC(C)C)NC(=O)[C@H](CCCNC(=N)N)NC(=O)[C@H](CCC(N)=O)NC(=O)[C@@H](NC(=O)[C@H](C)NC(=O)[C@@H]1CSSC[C@H](NC(=O)[C@@H](N)CCCCNC(=O)CC[C@H](NC(=O)CC[C@H](NC(=O)CCCCCCCCCCCCCCCCCCC(=O)O)C(=O)O)C(=O)O)C(=O)N[C@@H](CC(N)=O)C(=O)N[C@@H]([C@@H](C)O)C(=O)N[C@@H](C)C(=O)N[C@@H]([C@@H](C)O)C(=O)N1)[C@@H](C)O)C(=O)N1CCC[C@H]1C(=O)N[C@@H](CO)C(=O)N[C@@H](CO)C(=O)N[C@H](C(=O)N[C@@H](CC(N)=O)C(=O)N[C@H](C(=O)NCC(=O)N[C@@H](CO)C(=O)N[C@@H](CC(=O)O)C(=O)N[C@H](C(=O)N[C@@H](Cc1ccc(O)cc1)C(N)=O)[C@@H](C)O)C(C)C)[C@@H](C)O, also called compound 2)
2 | 957 | K([γGlu-γGlu-C20 diacid])CNTATCATQRLAEFLRHSSPNFGAIPSSTNVGRETY-NH2 (disulfide 2-7; N-terminus assumed; SMILES CC[C@H](C)[C@H](NC(=O)[C@H](C)NC(=O)CNC(=O)[C@H](Cc1ccccc1)NC(=O)[C@H](CC(N)=O)NC(=O)[C@@H]1CCCN1C(=O)[C@H](CO)NC(=O)[C@H](CO)NC(=O)[C@H](Cc1c[nH]cn1)NC(=O)[C@H](CCCNC(=N)N)NC(=O)[C@H](CC(C)C)NC(=O)[C@H](Cc1ccccc1)NC(=O)[C@H](CCC(=O)O)NC(=O)[C@H](C)NC(=O)[C@H](CC(C)C)NC(=O)[C@H](CCCNC(=N)N)NC(=O)[C@H](CCC(N)=O)NC(=O)[C@@H](NC(=O)[C@H](C)NC(=O)[C@@H]1CSSC[C@H](NC(=O)[C@@H](N)CCCCNC(=O)CC[C@H](NC(=O)CC[C@H](NC(=O)CCCCCCCCCCCCCCCCCCC(=O)O)C(=O)O)C(=O)O)C(=O)N[C@@H](CC(N)=O)C(=O)N[C@@H]([C@@H](C)O)C(=O)N[C@@H](C)C(=O)N[C@@H]([C@@H](C)O)C(=O)N1)[C@@H](C)O)C(=O)N1CCC[C@H]1C(=O)N[C@@H](CO)C(=O)N[C@@H](CO)C(=O)N[C@H](C(=O)N[C@@H](CC(N)=O)C(=O)N[C@H](C(=O)NCC(=O)N[C@@H](CCCNC(=N)N)C(=O)N[C@@H](CCC(=O)O)C(=O)N[C@H](C(=O)N[C@@H](Cc1ccc(O)cc1)C(N)=O)[C@@H](C)O)C(C)C)[C@@H](C)O)
